Non-standard residues stand in square brackets, D forms with d. No end group written: not given here. *: point of attachment. Tyr(3-F) = N[C@@H](Cc1ccc(O)c(F)c1)C(=O)O; Tyr(2-F) = N[C@@H](Cc1ccc(O)cc1F)C(=O)O; 4Pal = N[C@@H](Cc1ccncc1)C(=O)O; Cha = N[C@@H](CC1CCCCC1)C(=O)O; Gly(cPr) = N[C@H](C(=O)O)C1CC1; dCha = N[C@H](CC1CCCCC1)C(=O)O; Isobutyryl = CC(C)C(=O)*; Abu = CC[C@H](N)C(=O)O; Aib = CC(C)(N)C(=O)O; Bz = O=C(c1ccccc1)*
Experiments:
[1] = target: human Y2 receptor (human) (UniProt P49146); assay: cell-based or functional assay
Chain of human Y2 receptor (human) (P49146 whole entry): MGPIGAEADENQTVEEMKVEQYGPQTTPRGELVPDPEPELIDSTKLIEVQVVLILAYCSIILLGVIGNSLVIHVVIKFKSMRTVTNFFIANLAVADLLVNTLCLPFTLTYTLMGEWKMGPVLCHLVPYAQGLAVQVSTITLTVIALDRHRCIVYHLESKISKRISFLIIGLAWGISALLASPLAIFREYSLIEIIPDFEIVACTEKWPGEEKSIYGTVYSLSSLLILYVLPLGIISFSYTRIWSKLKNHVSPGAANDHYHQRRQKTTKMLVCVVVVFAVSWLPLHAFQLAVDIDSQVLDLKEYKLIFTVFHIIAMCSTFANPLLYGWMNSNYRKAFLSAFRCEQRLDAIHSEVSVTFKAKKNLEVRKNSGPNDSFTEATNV

[2] = target: human Y2 receptor (human) (UniProt P49146); assay: RBA: [125I]-PYY displacement, hY2R/CHO membranes

Binder | GBA EC50 Ratio (vs PYY(3-36)), [35S]GTPγS [1] | IC50 Ratio (vs PYY(3-36)) [2]
[dS]LR[Abu][Cha][Cha]NL[Aib]TRQR[Cha]-NH2 (N-terminus assumed; SMILES CC[C@H](NC(=O)[C@H](CCCNC(=N)N)NC(=O)[C@H](CC(C)C)NC(=O)[C@H](N)CO)C(=O)N[C@@H](CC1CCCCC1)C(=O)N[C@@H](CC1CCCCC1)C(=O)N[C@@H](CC(N)=O)C(=O)N[C@@H](CC(C)C)C(=O)NC(C)(C)C(=O)N[C@H](C(=O)N[C@@H](CCCNC(=N)N)C(=O)N[C@@H](CCC(N)=O)C(=O)N[C@@H](CCCNC(=N)N)C(=O)N[C@@H](CC1CCCCC1)C(N)=O)[C@@H](C)O) [[D-Ser23, Abu26, Cha27,28,36, Aib31]-PYY(23-36)] | 11 | 15
Isobutyryl-R[Abu][Cha][4Pal]NL[Aib]TRQR[Cha]-NH2 (SMILES CC[C@H](NC(=O)[C@H](CCCNC(=N)N)NC(=O)C(C)C)C(=O)N[C@@H](CC1CCCCC1)C(=O)N[C@@H](Cc1ccncc1)C(=O)N[C@@H](CC(N)=O)C(=O)N[C@@H](CC(C)C)C(=O)NC(C)(C)C(=O)N[C@H](C(=O)N[C@@H](CCCNC(=N)N)C(=O)N[C@@H](CCC(N)=O)C(=O)N[C@@H](CCCNC(=N)N)C(=O)N[C@@H](CC1CCCCC1)C(N)=O)[C@@H](C)O) [Isobutanoyl-[Abu26, Cha27,36, Pya(4)28, Aib31]-PYY(25-36)] | 22 | 26
Isobutyryl-R[Abu][Abu][Cha]NL[Aib]TRQR[Cha]-NH2 (SMILES CC[C@H](NC(=O)[C@H](CCCNC(=N)N)NC(=O)C(C)C)C(=O)N[C@@H](CC)C(=O)N[C@@H](CC1CCCCC1)C(=O)N[C@@H](CC(N)=O)C(=O)N[C@@H](CC(C)C)C(=O)NC(C)(C)C(=O)N[C@H](C(=O)N[C@@H](CCCNC(=N)N)C(=O)N[C@@H](CCC(N)=O)C(=O)N[C@@H](CCCNC(=N)N)C(=O)N[C@@H](CC1CCCCC1)C(N)=O)[C@@H](C)O) [Isobutanoyl-[Abu26,27, Cha28,36, Aib31]-PYY(25-36)] | 37 | 31
Isobutyryl-R[Abu][Cha][Cha]NH[Aib]TRQR[Cha]-NH2 (SMILES CC[C@H](NC(=O)[C@H](CCCNC(=N)N)NC(=O)C(C)C)C(=O)N[C@@H](CC1CCCCC1)C(=O)N[C@@H](CC1CCCCC1)C(=O)N[C@@H](CC(N)=O)C(=O)N[C@@H](Cc1c[nH]cn1)C(=O)NC(C)(C)C(=O)N[C@H](C(=O)N[C@@H](CCCNC(=N)N)C(=O)N[C@@H](CCC(N)=O)C(=O)N[C@@H](CCCNC(=N)N)C(=O)N[C@@H](CC1CCCCC1)C(N)=O)[C@@H](C)O) [Isobutanoyl-[Abu26, Cha27,28,36, His30, Aib31]-PYY(25-36)] | 20 | 22
Isobutyryl-R[Abu][Cha][Cha]NS[Aib]TRQR[Cha]-NH2 (SMILES CC[C@H](NC(=O)[C@H](CCCNC(=N)N)NC(=O)C(C)C)C(=O)N[C@@H](CC1CCCCC1)C(=O)N[C@@H](CC1CCCCC1)C(=O)N[C@@H](CC(N)=O)C(=O)N[C@@H](CO)C(=O)NC(C)(C)C(=O)N[C@H](C(=O)N[C@@H](CCCNC(=N)N)C(=O)N[C@@H](CCC(N)=O)C(=O)N[C@@H](CCCNC(=N)N)C(=O)N[C@@H](CC1CCCCC1)C(N)=O)[C@@H](C)O) [Isobutanoyl-[Abu26, Cha27,28,36, Ser30, Aib31]-PYY(25-36)] | 28 | 26
Ac-[dCha]R[Abu][Cha][Cha]NL[Aib]TRQR[Cha]-NH2 (SMILES CC[C@H](NC(=O)[C@H](CCCNC(=N)N)NC(=O)[C@@H](CC1CCCCC1)NC(C)=O)C(=O)N[C@@H](CC1CCCCC1)C(=O)N[C@@H](CC1CCCCC1)C(=O)N[C@@H](CC(N)=O)C(=O)N[C@@H](CC(C)C)C(=O)NC(C)(C)C(=O)N[C@H](C(=O)N[C@@H](CCCNC(=N)N)C(=O)N[C@@H](CCC(N)=O)C(=O)N[C@@H](CCCNC(=N)N)C(=O)N[C@@H](CC1CCCCC1)C(N)=O)[C@@H](C)O) [Ac-[D-Cha24, Abu26, Cha27,28,36, Aib31]-PYY(24-36)] | 13 | 15

The next lines start with the values.

GBA EC50 Ratio (vs PYY(3-36)), [35S]GTPγS [1] | IC50 Ratio (vs PYY(3-36)) [2] | Binder
16 | 25 | Isobutyryl-R[Abu][Cha][Cha]NL[Gly(cPr)]TRQR[Cha]-NH2 (SMILES CC[C@H](NC(=O)[C@H](CCCNC(=N)N)NC(=O)C(C)C)C(=O)N[C@@H](CC1CCCCC1)C(=O)N[C@@H](CC1CCCCC1)C(=O)N[C@@H](CC(N)=O)C(=O)N[C@@H](CC(C)C)C(=O)N[C@H](C(=O)N[C@H](C(=O)N[C@@H](CCCNC(=N)N)C(=O)N[C@@H](CCC(N)=O)C(=O)N[C@@H](CCCNC(=N)N)C(=O)N[C@@H](CC1CCCCC1)C(N)=O)[C@@H](C)O)C1CC1) [Isobutanoyl-[Abu26, Cha27,28,36, Gly(cPr)31]-PYY(25-36)]
22 | 19 | Isobutyryl-R[Abu][Cha][Cha]NQ[Aib]TRQR[Cha]-NH2 (SMILES CC[C@H](NC(=O)[C@H](CCCNC(=N)N)NC(=O)C(C)C)C(=O)N[C@@H](CC1CCCCC1)C(=O)N[C@@H](CC1CCCCC1)C(=O)N[C@@H](CC(N)=O)C(=O)N[C@@H](CCC(N)=O)C(=O)NC(C)(C)C(=O)N[C@H](C(=O)N[C@@H](CCCNC(=N)N)C(=O)N[C@@H](CCC(N)=O)C(=O)N[C@@H](CCCNC(=N)N)C(=O)N[C@@H](CC1CCCCC1)C(N)=O)[C@@H](C)O) [Isobutanoyl-[Abu26, Cha27,28,36, Gln30, Aib31]-PYY(25-36)]
41 | 52 | Isobutyryl-R[Abu][Cha][Gly(cPr)]NL[Aib]TRQR[Cha]-NH2 (SMILES CC[C@H](NC(=O)[C@H](CCCNC(=N)N)NC(=O)C(C)C)C(=O)N[C@@H](CC1CCCCC1)C(=O)N[C@H](C(=O)N[C@@H](CC(N)=O)C(=O)N[C@@H](CC(C)C)C(=O)NC(C)(C)C(=O)N[C@H](C(=O)N[C@@H](CCCNC(=N)N)C(=O)N[C@@H](CCC(N)=O)C(=O)N[C@@H](CCCNC(=N)N)C(=O)N[C@@H](CC1CCCCC1)C(N)=O)[C@@H](C)O)C1CC1) [Isobutanoyl-[Abu26, Cha27,36, Gly(cPr)28, Aib31]-PYY(25-36)]
20 | 26 | Isobutyryl-R[Abu][Cha][Cha]NL[Aib]TRQR[Tyr(3-F)]-NH2 (SMILES CC[C@H](NC(=O)[C@H](CCCNC(=N)N)NC(=O)C(C)C)C(=O)N[C@@H](CC1CCCCC1)C(=O)N[C@@H](CC1CCCCC1)C(=O)N[C@@H](CC(N)=O)C(=O)N[C@@H](CC(C)C)C(=O)NC(C)(C)C(=O)N[C@H](C(=O)N[C@@H](CCCNC(=N)N)C(=O)N[C@@H](CCC(N)=O)C(=O)N[C@@H](CCCNC(=N)N)C(=O)N[C@@H](Cc1ccc(O)c(F)c1)C(N)=O)[C@@H](C)O) [Isobutanoyl-[Abu26, Cha27,28, Aib31, Tyr(3F)36]-PYY(25-36)]
21 | 20 | Isobutyryl-R[Abu][Cha][Cha]N[Abu][Aib]TRQR[Cha]-NH2 (SMILES CC[C@H](NC(=O)[C@H](CCCNC(=N)N)NC(=O)C(C)C)C(=O)N[C@@H](CC1CCCCC1)C(=O)N[C@@H](CC1CCCCC1)C(=O)N[C@@H](CC(N)=O)C(=O)N[C@@H](CC)C(=O)NC(C)(C)C(=O)N[C@H](C(=O)N[C@@H](CCCNC(=N)N)C(=O)N[C@@H](CCC(N)=O)C(=O)N[C@@H](CCCNC(=N)N)C(=O)N[C@@H](CC1CCCCC1)C(N)=O)[C@@H](C)O) [Isobutanoyl-[Abu26, Cha27,28,36, Abu30, Aib31]-PYY(25-36)]
11 | 19 | Isobutyryl-R[Abu][Cha][Cha]NL[Aib]TRQR[Tyr(2-F)]-NH2 (SMILES CC[C@H](NC(=O)[C@H](CCCNC(=N)N)NC(=O)C(C)C)C(=O)N[C@@H](CC1CCCCC1)C(=O)N[C@@H](CC1CCCCC1)C(=O)N[C@@H](CC(N)=O)C(=O)N[C@@H](CC(C)C)C(=O)NC(C)(C)C(=O)N[C@H](C(=O)N[C@@H](CCCNC(=N)N)C(=O)N[C@@H](CCC(N)=O)C(=O)N[C@@H](CCCNC(=N)N)C(=O)N[C@@H](Cc1ccc(O)cc1F)C(N)=O)[C@@H](C)O) [Isobutanoyl-[Abu26, Cha27,28, Aib31, Tyr(2F)36]-PYY(25-36)]
6 | 13 | Bz-RS[Cha][Cha]NL[Aib]TRQR[Cha]-NH2 (SMILES CC(C)C[C@H](NC(=O)[C@H](CC(N)=O)NC(=O)[C@H](CC1CCCCC1)NC(=O)[C@H](CC1CCCCC1)NC(=O)[C@H](CO)NC(=O)[C@H](CCCNC(=N)N)NC(=O)c1ccccc1)C(=O)NC(C)(C)C(=O)N[C@H](C(=O)N[C@@H](CCCNC(=N)N)C(=O)N[C@@H](CCC(N)=O)C(=O)N[C@@H](CCCNC(=N)N)C(=O)N[C@@H](CC1CCCCC1)C(N)=O)[C@@H](C)O) [Benzoyl-[Ser26, Cha27,28,36, Aib31]-PYY(25-36)]
49 | 70 | Isobutyryl-R[Abu]G[Cha]NL[Aib]TRQR[Cha]-NH2 (SMILES CC[C@H](NC(=O)[C@H](CCCNC(=N)N)NC(=O)C(C)C)C(=O)NCC(=O)N[C@@H](CC1CCCCC1)C(=O)N[C@@H](CC(N)=O)C(=O)N[C@@H](CC(C)C)C(=O)NC(C)(C)C(=O)N[C@H](C(=O)N[C@@H](CCCNC(=N)N)C(=O)N[C@@H](CCC(N)=O)C(=O)N[C@@H](CCCNC(=N)N)C(=O)N[C@@H](CC1CCCCC1)C(N)=O)[C@@H](C)O) [Isobutanoyl-[Abu26, Gly27, Cha28,36, Aib31]-PYY(25-36)]

Source: patent US20120172293A1 (Takeda / Millennium, published 2012)
